Results published in publication PMC8934646, “The intrinsically disordered TSSC4 protein acts as a helicase inhibitor, placeholder and multi-interaction coordinator during snRNP assembly and recycling” (Nucleic Acids Research, 2022).

Biological target: T1, SNRNP200 helicase region (SNRNP200^HR) (human, UniProt O75643 395-2129)
T1 construct: human SNRNP200 helicase region, residues 395-2129
Test: SEC; competitive binding: 5 μM pre-formed SNRNP200^HR-FBP21^200–376 or SNRNP200^HR-C9ORF78 complex incubated with 5 μM GST-TSSC4 in 50 μl, 10 min on ice, then analytical SEC as in a1
Conditions: both partners purified

T1 sequence (O75643 395-2129): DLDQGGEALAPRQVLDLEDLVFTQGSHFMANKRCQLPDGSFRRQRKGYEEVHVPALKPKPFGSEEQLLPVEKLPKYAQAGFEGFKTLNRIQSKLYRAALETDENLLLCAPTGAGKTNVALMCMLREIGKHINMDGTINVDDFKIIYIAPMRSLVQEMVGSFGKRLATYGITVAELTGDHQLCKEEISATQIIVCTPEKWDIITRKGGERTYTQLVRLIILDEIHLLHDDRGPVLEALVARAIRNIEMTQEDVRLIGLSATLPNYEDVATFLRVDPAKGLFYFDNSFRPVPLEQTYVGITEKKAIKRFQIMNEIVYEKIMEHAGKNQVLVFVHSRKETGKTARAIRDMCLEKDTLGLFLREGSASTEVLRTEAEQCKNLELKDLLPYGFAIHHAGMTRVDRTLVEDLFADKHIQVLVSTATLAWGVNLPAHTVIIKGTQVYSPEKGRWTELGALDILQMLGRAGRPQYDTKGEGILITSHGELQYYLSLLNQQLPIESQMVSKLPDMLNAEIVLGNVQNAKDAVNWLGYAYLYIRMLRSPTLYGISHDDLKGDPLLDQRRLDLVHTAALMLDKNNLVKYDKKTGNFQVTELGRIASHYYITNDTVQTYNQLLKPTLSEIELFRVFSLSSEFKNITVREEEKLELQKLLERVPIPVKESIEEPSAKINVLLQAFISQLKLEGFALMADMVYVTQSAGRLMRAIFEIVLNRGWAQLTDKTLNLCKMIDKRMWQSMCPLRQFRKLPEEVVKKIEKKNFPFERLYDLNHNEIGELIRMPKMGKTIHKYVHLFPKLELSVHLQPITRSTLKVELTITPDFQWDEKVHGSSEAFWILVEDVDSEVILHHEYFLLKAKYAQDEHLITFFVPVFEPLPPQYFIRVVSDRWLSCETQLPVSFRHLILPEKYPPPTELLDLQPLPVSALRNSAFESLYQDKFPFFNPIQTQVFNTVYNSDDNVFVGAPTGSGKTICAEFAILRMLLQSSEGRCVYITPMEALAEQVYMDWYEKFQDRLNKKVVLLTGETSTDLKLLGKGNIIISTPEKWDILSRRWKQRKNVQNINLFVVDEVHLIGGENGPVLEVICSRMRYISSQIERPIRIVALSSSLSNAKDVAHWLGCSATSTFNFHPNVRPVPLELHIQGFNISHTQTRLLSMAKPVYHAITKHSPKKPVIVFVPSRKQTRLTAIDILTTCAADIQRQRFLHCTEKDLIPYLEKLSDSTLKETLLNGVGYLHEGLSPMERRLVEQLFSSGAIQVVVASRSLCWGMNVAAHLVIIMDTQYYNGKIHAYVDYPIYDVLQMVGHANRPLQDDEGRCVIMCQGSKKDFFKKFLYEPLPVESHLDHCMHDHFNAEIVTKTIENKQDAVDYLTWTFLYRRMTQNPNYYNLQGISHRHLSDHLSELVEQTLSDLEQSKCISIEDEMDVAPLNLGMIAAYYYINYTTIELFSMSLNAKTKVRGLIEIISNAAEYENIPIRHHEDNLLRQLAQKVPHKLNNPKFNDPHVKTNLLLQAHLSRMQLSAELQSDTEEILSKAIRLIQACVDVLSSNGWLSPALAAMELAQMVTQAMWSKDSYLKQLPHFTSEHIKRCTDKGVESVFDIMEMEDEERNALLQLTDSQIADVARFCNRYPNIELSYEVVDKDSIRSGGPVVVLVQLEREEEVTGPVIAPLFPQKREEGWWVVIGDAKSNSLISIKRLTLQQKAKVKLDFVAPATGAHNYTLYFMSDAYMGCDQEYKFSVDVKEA

B1: C-terminal fragment of FBP21 (FBP21^200–376) (domain or fragment, human, UniProt O75554 200-376, looked up)
chain: HTSDLPSSKVNENSLGTLDESKSSDSHSDSDGEQEAEEGGVSTETEKPKIKFKEKNKNSDGGSDPETQKEKSIQKQNSLGSNEEKSKTLKKSNPYGEWQEIKQEVESHEEVDLELPSTENEYVSTSEADGGGEPKVVFKEKTVTSLGVMADGVAPVFKKRRTENGKSRNLRQRGDDQ
- binding result: binds
